For series [1], the system named is Cas10-Csm K524E (Staphylococcus epidermidis). As to the kind of experiment: fluorescence polarization. To be noted: no Mg2+, 1 mM EDTA, Kd only in Fig 8B, 50 mM Tris-HCl pH 8.0, 400 mM NH4Cl, 5% v/v glycerol, 0.025% w/v BSA, 10 nM RNA, 2 h at room temperature. Background: In fluorescence polarisation assays a small probe gives low polarisation when free and higher when bound to something large.

Series [2] relates to Cas10-Csm R754E (Staphylococcus epidermidis). As to the kind of experiment: fluorescence polarization. The following applies: no Mg2+, 1 mM EDTA, Kd only in Fig 8B, 50 mM Tris-HCl pH 8.0, 400 mM NH4Cl, 5% v/v glycerol, 0.025% w/v BSA, 10 nM RNA, 2 h at room temperature.

As for “CUUUGUACUGAUGAUUUAUAUACAAGCCGAUACGUUCUCUAAA [pmRNA01-FMM2 (Nes target, segment 2 mismatch)]”, the binding signal (fold Kd vs same mutant on cognate) in series [1] is 2.7; in series [2], 1.6.
As to “CUUUGUACUGAUGAUUUAUAUACUUCGGCAUACGUUCUCUAAA [pmRNA01-F (Nes cognate target)]”, the figures for the binding signal (fold Kd vs wild type on cognate) in series [1] and in series [2] were 1.8 and 2.8, respectively.

For the origin of these results see article PMC12934148.
